Experimental data published in FireProtDB (doi:10.1110/ps.8.9.1843).

B1: Guanyl-specific ribonuclease Sa wild type, P05798 (protein)
chain: DVSGTVCLSALPPEATDTLNLIASDGPFPYSQDGVVFQNRESVLPTQSYGYYHEYTVITPGARTRGTRRIITGEATQEDYYTGDHYATFSLIDQTC
B2: Guanyl-specific ribonuclease T1 wild type, P00651 (protein)
chain: MMYSKLLTLTTLLLPTALALPSLVERACDYTCGSNCYSSSDVSTAQAAGYQLHEDGETVGSNSYPHKYNNYEGFDFSVSSPYYEWPILSSGDVYSGGSPGADRVVFNENNQLAGVITHTGASGNNFVECT

Details: Kitasatospora aureofaciens; pH 7; Thermal; CD; MOPS 30 mM; whole UniProt chain shown

Protein	Tm	unfolding enthalpy (van 't Hoff)
B1	47.2 °C	91 kcal/mol

Same assay, conditions: Aspergillus oryzae (strain ATCC 42149 / RIB 40); pH 2.5; 25 °C; Urea; CD; glycine 30 mM; whole UniProt chain shown

Protein	denaturant m value	denaturant midpoint (higher = more stable)
B2	1.59 kcal/mol/M	3.66 M

Same assay, conditions: Aspergillus oryzae (strain ATCC 42149 / RIB 40); pH 7; 25 °C; Urea; CD; MOPS 30 mM; whole UniProt chain shown

Protein	denaturant m value	denaturant midpoint (higher = more stable)
B2	1.23 kcal/mol/M	5.23 M
